Experiment: soluble on expression in E. coli; label from the status in PepcDB or PDB records

Row | Sequence | soluble on expression in E. coli
1 | MGSDKIHHHHHHMASPTVRRRQLSAILREMRKASGLSLDAVAARLEWSRAKVGHIETGQRKKPSVLEVKALMAEYGVTPEDPRYETVLMLTRQAQARGWWRRYDDLFPGSYIELEAEASEIRTYEAFVVPGLLQTPGYTRLLQQARLDRDPDDVERAVESRRKRQEIFDRTSPPAVYAIIEEHALERLRGTPDVLAEQVAHLLHMAGRNSVTLQVLRTRVGVHAGAMGPFVILDFPEPASPVVYLETYTDGLFLERREEIDQYRSLWDRIRDAALPPDRTVEFLRSLLTL | not soluble
2 | MIRFCLQCLKTKKACICEWITPITTDIELIILQHPTEAKRPLGTAKILSLSLVNCRTFIGENFSEHSELNQLLADDSYHHQVLFLDNESKAIGTDKALLQKKQRVILLDGTWKKAYKMWQLSTNLHSLPKVHLNTDLSGNYRVRKAPKDNALSTAEAGYHILTQLDNDCVASNNVEKFDSILTAFDNMIEFHISQMPEGVFEKNYRSLEHHHHHH | soluble
3 | MRKPTYHQINPLIRLKETELLSEQQFQQLLEAETVEDVRNMLKSTVYQPYLTETFEEKFDYHSSEALGSLYRWLYEMAPEPAVVTLYTMRFTFHNLKILTKAERTGKDFDYLYLEDGRYSLNTVKSAIHTKNSSELEPALLEVIRDVFAYLEEGGLPQAIDILYDRAFLQQQRKLADELGYEELTKEVIAFIDLTNLSTMARGIVQHQNSNFLSTVLSSAGSITKKELLTYAEKSLVEFTAFVRTTNYGQLLEKIINKETNELNLLAFEKLKDDYLTSMYENGRTVAFGPLPLLAFLNAKEVEWKNLRLILVGKHSGFSNEKIRERMRKVNGV | not soluble
4 | MKILHTSDWHIGKTLYGHKRYDEFEAFFSWLVETIEQEQVDVLLIAGDIFDTSTPGNRSQQLYYRFLHRVAASACRHVVIIAGNHDSPSFLSAPRELLRALDVHVTGSLSGNPADEILVLHDPKGDAELIVCAVPHLRDRDIRTAEAGESMEDKSRKLVEGIRDHYAEVINLARLQRTALSSSIPIIAMGHLFVAGGQTVEGDGVRELYVGSLAHVPAGIFPPDIDYLALGHLHVPQRVNGSSVMRYSGSPLPIGFGEADQEKSVCLIEFNRQ | not soluble
5 | MGSDKIHHHHHHMAYVPNPVNIGVVYTENAAVLVDSGLDESVPRKISRLLQKPPLYLINTHSHADHCGGNAFLKKRFSTRVFAPKMEKEIIENTVFEPFYLYGAYPPNELRNKFLMAEPSAVDEVIEEGTITIESVDLEIVPLSGHSTNQIGVAVDGVLFCADAVFSEETLRKHRIFVIYNVEKFLETLDFLEKTSYSYYVPSHGEVTRDIGELVEKNRKAVENIINAVLEITVNPLSTDELMKQLFDRFEITLENLTQYILYRSTVHAYLSFLLDRKEIEREFRNNVLVWRRC | not soluble
6 | MYLYIETLKQRLDAINQLRVDRALAAMGPAFQQVYSLLPTLLHYHHPLMPGYLDGNVPKGICLYTPDETQRHYLNELELYRGMSVQDPPKGELPITGVYTMGSTSSVGQSCSSDLDIWVCHQSWLDSEERQLLQRKCSLLESWAASLGVEVSFFLIDENRFRHNESGSLGGEDCGSTQHILLLDEFYRTAVRLAGKRILWNMVPCDEEEHYDDYVMTLYAQGVLTPNEWLDLGGLSSLSAEEYFGASLWQLYKSIDSPYKAVLKTLLLEAYSWEYPNPRLLAKDIKQRLHDGEIVSFGLDPYCMMLERVTEYLTAIEDFTRLDLVRRCFYLKVCEKLSRERACVGWRREVLSQLVKEWEWDDARLAMLDNRANWKIDQVREAHNELLDAMMQSYRNLIRFARRNNLSVSASPQDIGVLTRKLYAAFEALPGKVTLVNPQISPDLSEPNLTFIYVPPGRANRSGWYLYNRAPNIESIISHQPLEYNRYLNKLVAWAWFNGLLTSRTRLYIKGNGVVDLPKLQEMVADVSHHFPLRLPAPTPKALYSPCEIRHLAIIVNLEYDPTAAFRNQVVHFDFRKLDVFSFGENQNCLVGSVDLLYRNSWNEVRTLHFNGEQSMIEALKTILGKMHQDAAPPDSVEVFCYSQHLRGLIRTRVQQLVSECIELRLSSTRQETGRFKALRVSGQTWGLFFERLNVSVQKLENAIEFYGAISHNKLHGLSVQVETNHVKLPAVVDGFASEGIIQFFFEETQDENGFNIYILDESNRVEVYHHCEGSKEELVRDVSRFYSSSHDRFTYGSSFINFNLPQFYQIVKVDGREQVIPFRTKSIGN | not soluble
7 | MSKLSFRARALDASKPLPVFRCEDLPDLHEYASINRAVPQMPTGMEKEEESVMLRFFSLYFYRLYPPSTRSLLCASLHKMAAMFLPDGNGDGAHTSPLVIPHSGWLVGLIRISL | not soluble
8 | MENTVLNLDSDVIHACEAIFQPIRLVYTHAQTPDVSGVSMLEKIQQILPQIAKNAESAEQLRRVPDENIKLLKEIGLHRAFQPKVYGGLEMSLPDFANCIVTLAGACAGTAWAFSLLCTHSHQIAMFSKQLQDEIWLKDPDATASSSIAPFGKVEEVEGGIILNGDYGWSSGCDHAEYAIVGFNRFDADGNKIYSFGVIPRSDYEIVDNWYAQAIKSSGSKMLKLVNVFIPEYRISKAKDMMEGKSAGFGLYPDSKIFYTPYRPYFASGFSAVSLGIAERMIEAFKEKQRNRVRAYTGANVGLATPALMRIAESTHQVAAARALLEKTWEDHRIHGLNHQYPNKETLAFWRTNQAYAVKMCIEAVDRLMAAAGATSFMDNSELQRLFRDAHMTGAHAYTDYDVCAQILGRELMGMEPDPTMV | soluble
9 | MGSDKIHHHHHHMIVALIIHRPLTKRQKMVAYDVEQLEGKVRGALLQGTNSGKTGVIVLGGSSGRVDTTRAGLFANTGARALALQWFGGANQPPGICEIPLETFVDATDLLISRGCDRTVFVGTSKGAEAALLASTIDHRINVVIAISPSSVVLGNIGAGVDGISWPERSSWSFKRSPLDFVPADINWQKDYRDGLVSYRSFFEKCLSNDVQLNERARIPVESSPADLILVAGGDDALWPSGYFARQILQSRQAHGRQATLIFDKDAGHRILLPGETTQRSKLHAHGGSDEADAKLGQNAWRAIRELL | not soluble
10 | MKENFLKQKRMEKNLTLEQVGNFVGVGKSTVRKWETGMIENMGRDKIVALSKILDVSPLEILGIPETEETPFVVPTNIMNIYKQLTTENQEAVFRYAQKKLTEQNYF | not soluble
11 | MERVRRASHAGSWYTNNARKLDEELDGWLRAAGLTKSPDVRAVIAPHAGYSYSGRCAAYAFGNIDPTNISRVFLLGPSHHYYTPKCALTRATIYSTPIGDLPVDHEVIEELNATGKFDFMDLSVDEAEHSMEMHLPYLSKVFQGHNVKVVPILVGALNSQNEAMYGQLLSKYLDDPKNFFSISSDFCHWGTRFSYTYYDKSHGAIHKSIEALDRMGMEIIETGNPDAFKQYLQEYENTICGRHPISVFLSMLKHCLTKIKIGFVRYEQSSQCKSMRDSSVSYASAAAKVDTPAEEEKD | soluble
12 | MGSSHHHHHHSSGLVPRGSHMGHGSRLPYGEEVINGIADIYRQEADHPVAVGFMNMSRPSIPEAINELAAMGVEKIIVTPVFLAHGVHTKHDIPHILGLDNGAEGHHHHEHEHEHEEFEFDGEIVYTEPLGADPRIAEIIRDRVKSAI | soluble
13 | MNTQFSCVGCGKCCNDHHVPLTLLEARDWAADGGQVIILVEAFLGNGLGLPMQQREHAERRSCRVRSGATEAYVAITFAAYNVGPCRNLDEDQLCRIYQRRPLVCRIYPMEINPHIPLNPQAKECPPESWEQGPQLILGNELVDQELAELIRRSRQADRDDIHTKEAICALLGIRTTALKGDGFTAYLPDMGALANAIDQVQAAPPGAPGQPWRFHLSGDDIAGQVQAAGAQVVSETPLDYAFISLRAALEHHHHHH | soluble
14 | MALNVNRAVADPFYRYKMPKLSAKVEGKGNGIKTVISNMSEIAKALERPPMYPTKYFGCELGAQTNFDAKNERYIVNGEHDANKLQDILDGFIKKFVLCKSCENPETQLFVRKNNIKSKCKACGCSFDIDLKHKLSTFIMKNPPKIDVDFSKAEQKNGKKTSGADAAAAVAADIIHNSDKGSSNDDDDDDWEPEPVEPNGMLSAGMGKLVLDKDLEKSEEQRLDMLHTFFLKAKEEDRISDAKGQTALRDEAERLELKQKASLLLANVFLDEKVITDKQISKHRNLLLRFTLNDKKAQRYLLGGVEQVIHKHEAELLSKSAHIIKSLYDEDVCEEDSLISWGEKPSSKYVSKSFAKKIIENSQPVLNWLKEAEEETEEESDDEIAFGGDVKESEFLRQQKEKAAREAQQKSAKATNGNAAAASGANDEEDLDIDDI | soluble
15 | MALACTDSANSTFSRVDSPTSGPSDQLTTHDLDRHIEKLMRCELIAEQDVKTLCAKAREILAEEGNVQVIDSPVTICGDIHGQFYDLMELFKVGGPVPNTNYLFLGDFVDRGFYSVETFLLLLALKARYPDRMMLIRGNHESRQITQVYGFYDECLRKYGNASVWKHCTEVFDYLSLAAVIDGKVFCVHGGLSPSISTMDQIRVIDRKQEVPHDGPMCDLLWSDPEEGNVGWGLSPRGAGYLFGADASKTFCETNGVDLICRAHQLVMEGYKWHFNEKVLTVWSAPNYCYRCGNVAAILELDENLNKEFTIFEAAPQENRGAPAKKPHADYFL | not soluble
16 | MAAKHVLFSTDARQKMLSGVNLLANAVKVTLGPKGRHVVLNKSYGAPTITKDGVSVAKEIELADKFENMGAQMLKQVASKANDEAGDGTTTATVLAQALINEGMKAVAAGMNPMDLKRGIDKAVSAAVEKLHQLAKPCSDTQSITQVGAISANSDHAIGEIIAQAMEKVGRNGVITVEEGQALQNELSVVEGMQFDRGYLSPYFINQPKAGCVELENPYVLLVDKKISHIRELLPILESVAKASRSLLIIAEDVDGDALATLVVNSMRGIIKVAAVKAPGFGEQRKAMLEDIAALTAGRVISEEIGLELEKVTLDDLGSAKKVTINKDNTTIVDGAAEPSALQDRIAQIQHQLEHTTSQYDRDKLQQRIAKLSGGVAVIKIGAATEVEMKEKKDRVDDALHATRAAVEEGIVAGGGVALLKIANELSNLQGDNDDQNVGIRIALRAMEEPLRQIAINAGDEASVIANQVKTGDEHYGYNAATGQFGNMLEMGILDPAKVTRSALQFAASIAGLMITTEAMVSEVDKESAA | not soluble
17 | MKFSVLMSLYIKENPQFLRECFESLVAQTRQADEIVLVFDGVVTPDLEFVVTEFETKLPLKLVKLPQNRGLGKALNEGLLHCDYDWVFRMDTDDICVPDRFEKQVAFIEQHPESIIFGGQIAEFGKNVNDIVAYRNVPTSAQEIIKFTQKRCPFNHMTVAYQKSAVINCGGYEDLQEDYYLWIKLVAQGLYMANLPDILVYARVGNGMVLEHHHHHH | not soluble
18 | GPGSMVRIRSLAKELRQLELQKQTASLPPPRAASSDDVLDDATRSATSSRKPEAPSCSSSPRDGDILTNAAHASTTAEAEAVPSSSPASRTVAAAEPQPTSAFPLSQLSLSSPDGAHNRSRNSLYSLGGSRFNILLGGSHGDGGACRKSQVRKATRACASGGGKNGAATATATQVPQRRGEAGGSSLLEKGKDGEVVANPAPPLGTSSGIPTRPPFKRLLAQPFSHVLVCDFEATCASGSVHYPHEIIEFPVVVLDTATLRIVAEFHRYVRPLRNPKLTAFCTELTGITQEMVDVADPLPTVVAQFQDWLKTEVYPLCWMWARHYGPNRLSHNLKSEQRRFVYDEHTDAAKANTSAEAMVCMATDGPWDMRRFMHQCSVLRDGVDFPPVCYRYINVRHSYSDHFKCRQAKLTHMLKKMSMSFEGRRHSGIDDTRNIARVLAELFARGYRVHHVSTITYAHRGDAFLESNRAAQELLSEFGETDETHTSKHANAHKGGGRQRGVKRA | not soluble
19 | MSRIGRIPVAIPKGVDVKLGDNNTLTVKGQKGTLTKQFHKDMIIKVEGDKIIVQRPSDEKKHKALHGLTRTLINNMVIGVTQGYEKALEINGVGYRAQKQGKKLILTLGYSHPVEMEEPQGITVEVPAPNKIVVKGADKQAVGEFAAKIRSKREPEVYKGKGIKYEDEVIRRKEGKAGGKGKK | not soluble
20 | AIAELTGQRLREGDGPDGPADDGAGAQADLEHSLLVAAEKKDEGPYRMEHFRWGSPPKDKRYGGFMTSEKSQTPLVTLFKNAIIKNAYKKGE | soluble
